Measured values published in US20100322937A1.

Columns and labels:
[1] = target: wtEGFR: full-length human EGFR with FLAG tag after the leader, on BaF/3 cells (human) (UniProt P00533); test: FACS, wtEGFR-BaF/3 cells after mock preincubation, antibody at 10 µg/ml
[2] = target: wtEGFR: full-length human EGFR with FLAG tag after the leader, on BaF/3 cells (human) (UniProt P00533); test: FACS median fluorescence, wtEGFR-BaF/3 cells preincubated with EGF (10 ng/ml, 4 C, 15 min)
[3] = target: wtEGFR: full-length human EGFR with FLAG tag after the leader, on BaF/3 cells (human) (UniProt P00533); test: FACS median fluorescence, wtEGFR-BaF/3 cells preincubated with mAb[…] (10 µg/ml, 37 C, 1 hr)
[4] = target: EGFR 273-621 C287R, yeast surface displayed (UniProt P00533); test: from titration on yeast surface displayed fragments
[5] = target: EGFR 273-621 E293K, yeast surface displayed (UniProt P00533); test: as above
[6] = target: EGFR 273-621 C287R, yeast surface displayed (UniProt P00533); test: titration on yeast surface displayed fragment, flow cytometry, global fit of three data sets
[7] = target: wild-type EGFR 273-621 (C283A template), yeast surface displayed, C-terminal c-myc tag (UniProt P00533); test: as above

monoclonal antibody 806 (mAb 806), murine IgG2b anti-EGFR, sequence (VH): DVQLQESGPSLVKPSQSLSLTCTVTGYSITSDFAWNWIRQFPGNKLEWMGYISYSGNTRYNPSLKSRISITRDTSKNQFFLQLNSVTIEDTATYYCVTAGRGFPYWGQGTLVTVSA
monoclonal antibody 806 (mAb 806), murine IgG2b anti-EGFR, sequence (VL): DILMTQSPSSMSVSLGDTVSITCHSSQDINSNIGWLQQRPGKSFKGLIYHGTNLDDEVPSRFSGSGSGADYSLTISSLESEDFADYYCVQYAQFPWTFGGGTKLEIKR

Substance | median fluorescence [1] | change (%) in antibody reactivity after preincubation [2] | change (%) in antibody reactivity after preincubation [3] | ΔΔG compared to wild-type [4] | ΔΔG compared to wild-type [5] | Kd [6] | Kd [7]
monoclonal antibody 528 (mAb 528), IgG2a anti-EGFR | 112 | -23% | -3% |  |  |  | 
monoclonal antibody 806 (mAb 806), murine IgG2b anti-EGFR | 7 | -48% | 163% | 2.4 kcal/mol | 5.7 kcal/mol | 0.127 µM | 0.00213 µM
